The values below come from the nanobody polyreactivity screen of Harvey et al. (2022).

The series is described as follows: yeast display, Sf9 membrane polyspecificity reagent, FACS + sequencing; frameworks hold sequencing errors. In short, it runs like this:
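A nanobody's polyreactivity label depends on the gate it was sorted from. Yeast display cells were stained with 10% biotinylated, detergent-solubilized Sf9 membrane reagent for 1 hour at 4 °C, enriched on streptavidin microbeads and sorted by FACS. The low and high (top ~1%) gates were set on anti-HA fluorescence for expression and streptavidin fluorescence for reagent binding.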
In the case of “QVQLVESGGGLVQAGGSLRLSCAASGFIFLYNAMGWDRQARGKERELVAAITSSGGTTYYADSVKGRFTISRDNAKNTVYLQINSLKPEDTAVYYCAARYTGRNGGSTTPEYDYWGQGTQVTVSS”, the “polyreactivity (PSR sort gate)” value is reported as “low polyreactivity”.

For “QVQLVESGGGLVQAGGSLRLSCAASGYTIFFNVMGGYRQAPGKERELVAAISYSGGSTNYADSVKGRFTISRDNAKNTVYLQMNSLKPEDTAVYYCNTVRSPPGHVYWGEGTQVTVSS”, the “polyreactivity (PSR sort gate)” value is given as “low polyreactivity”.

On to “QVQLVESGGGLVQAGGSLRVSCAASGFTFRGYAMGWYRQAPGKERELVAAIRRGVITNYADSVKGRFTISRDNAKNTVYLQMNSLKPEDTAVYYCAAGNITPYRYYHGYYQSIYDYWGQGTQVTVSS”, for which the “polyreactivity (PSR sort gate)” value is listed as “low polyreactivity”.

In the case of “QVQLVESGGGLVQAGGSLSLSCAASGSIFGSYAMGWYRKAPGKERELVAAITGSGVSTYYADSVKGRFTISRDNAKYTVYLQMNSLKPEDTAVYYCAAKRYYARSAYGSYFIVGYWGQGTQVTVSS”, the “polyreactivity (PSR sort gate)” value is “high polyreactivity”.

Take “QVQLVESGGGFVQAGGSLRLSCPPSGRIIQAYAMAWYRQSPGKERELVAAISRSGGGTYYADSVKVRFTISRDNAKNTVYFLMNSLKPEDTAVSYCNAYYYYYTARWTQVNYWGQGTQVTVSS”: the “polyreactivity (PSR sort gate)” value was “high polyreactivity”.

Regarding “QVQLVESGGGLVQAGGSLRLICAASGSIFGRYAMGWYRQAPGKERELVAAITGSGGTTYYADSVKGRFTISRDNAKNTVYLQMNSLKPEDTAVYYCAADPQVYYSGRPRYDYWGQGTQVTVSS”, the “polyreactivity (PSR sort gate)” value is reported as “high polyreactivity”.

With “QVQLVESGGGLVQAGGSLRLSCAASGFIFSRNVMGWYRQAPGKERELVAAISRSGGSTYYADSVKGRFTISRDNAKNTVYLQMNSLKPEDTAVYYCAASRINYVYLLKGDYWGQGTQVTVSS”, the “polyreactivity (PSR sort gate)” value is “high polyreactivity”.

In the case of “QVQLVESGGGLVQAGGSLRLSCAASGFTLGTYAMGWYRQAPGKERELVASITVTGGSTYYADSVKGRFTISRDNAKNTVYLQMNSLKPEDTAVYYCAASYQHFRSVNPYDSWGQGTQVTVSS”, the “polyreactivity (PSR sort gate)” value was “low polyreactivity”.

Take “QVQLVESGGRLVQAGGSLRLTCAASGSTFSRYAMGWSRQAPGKERELVAAITGSGGNTYYADSVKGRFTISRDNAKNTVYLQMNSLKPEDTAVYYCAAEDYVGWYNFEYWGQGTQVTVSS”: the “polyreactivity (PSR sort gate)” value is listed as “high polyreactivity”.

“QVQLVESGGGLVQAGGSLRLSCAASGRIFKYNAMGWYRQAPGKERELLAAITRGGSTNYADSVKGRFTISRDNAKNTVYLQMNSLKPEDTAVYYCAALRSRYGRDMDYWGQGTQVTVSS”: the “polyreactivity (PSR sort gate)” value is recorded as “high polyreactivity”.

As to “QVQLVESGGGLVQAGGSLRLSCAASGRILYQYDMGWYRQAPGKERELVASISRSGGRTYYADSVKGRFTISRDNAKNTVYLQMNSLNPEDTAVYYCAAELTYFGYPIDFDSWGQGTQVSVSS”, the “polyreactivity (PSR sort gate)” value is recorded as “low polyreactivity”.

Take “QVQLVESGGGLVQAGGSLRLSCAASGNTFGHYTMGWYRQAPGKERELVAAISWDDSSTNYADSVKGRFTISRDNAKNTVYLQMNILKPEDTAVYYCAKETELRTQYPYVYDYWGQGSQVTVSS”: the “polyreactivity (PSR sort gate)” value is “low polyreactivity”.

“QVQLVESVGGLGQAGGSLRLSCAASGSTFAGYTMGWYRQAPGKERELVAANTSRGGRTYYADSVKGRFTISRDNAKNTVYIQMNSLKPEDTAVYYCAAVSRYYAELMYYWGQGTQVTVSS”: the “polyreactivity (PSR sort gate)” value was “high polyreactivity”.

For “QVQLVESGGGLVQAGGSLRLSCAASGRTSDEYAMGWYRPAPGKERELVAAITSGGSTNYADSVKGRFTISRDNAKNTVYLQMNSLKPEDTAVYYCAADNIRTWRPIYDYWGQGTQVTVSS”, the “polyreactivity (PSR sort gate)” value was “low polyreactivity”.

For the sequence “QVQLVESGGGLVQAGGSLRLSCAASGSTFDKYAMGWYRQAPRKERELVAAITWGGGSTYYADSVKGRITISRDNAKNTVYLPMNSLKPEDTAVYYCAAEQRSSVLYDSWGQGTQVTVSS”, the “polyreactivity (PSR sort gate)” value is “low polyreactivity”.

Regarding “QVQLVESGGGLVQAGGSLRLSCAASGSTFRGYTMGWYRQAPGKERELVATISYRSGSTSYADSVKGRFTISRDNAKNTVYLQMNSLKPEDTAVYYCNRVYSKPRYYYWGQGTQVTVSS”, the “polyreactivity (PSR sort gate)” value is listed as “high polyreactivity”.

As to “QVQLVESGGGLVQAGGTLRLSCAASGRIFVYYTMGWYRQAPGKERELVAAITCSGGSTYYADTVKGRFTISRDNEKNPVYLQMNSLKPEDTAVYYCAADGYADYYGWGYWTEYDYWGQGTQVTVSS”, the “polyreactivity (PSR sort gate)” value is reported as “low polyreactivity”.

In the case of “QVQLAESGGGLVQAGGSLRLSCAASGRIFAFYAMGWYRQAPGKERELVAIISSAGRPYYADSVKGRFTISRDNAKYTVYLQMNSLKREDTAVYYCAAGGRARTYYYWGQGTQVTVSS”, the “polyreactivity (PSR sort gate)” value was “high polyreactivity”.

As for “QVQLQESGGGLVQAGGSLRLSCAASGYISYFVGMGWYRQAPGKEREFVASIADGSNTYYADSVKGRFTISRDNAKNTVYLQRNSLKPEDTAVYYCAVEDSWTYRFDYWGQGTQVTVSS”, the “polyreactivity (PSR sort gate)” value was “high polyreactivity”.

“QVQLVESGGGLVQAGGSLRLSCAASGFIFRYFAMGWYRQAPGKERELVAAISRSGGSTYYADSVKGRFTISRDNAKNTVYLQMNSLKPEDTAVYYCAAKDGRSYYDLSPMDYWGQGSQVTVSS”: the “polyreactivity (PSR sort gate)” value was “low polyreactivity”.

As to “QVQLGESGGGLVQAGGSLRLSCAASGRIFAWNAMGWYRQAPGKERELVAAITYNGGSTYYADSVKGRFTISRDNAKNTVYLQMNSLKPEDTAVYYCNKVTRSPAQGYGYWGQGTQVTVSS”, the “polyreactivity (PSR sort gate)” value is given as “high polyreactivity”.

For the sequence “QVQLVESGGGLVQAGGSRRLSCAASGNIFPQNGMGWYRQAPAKERELVAAITRGGSTYYADSVKGRFTISRDNAKNTVYVQMHSLKPEDTAVYDCAAVRPQYRRRTKANPYNYWGQGTQVTVSS”, the “polyreactivity (PSR sort gate)” value was “high polyreactivity”.

Take “QVQLVESGGGLVQAGGSLRLSCAASGFIFWPYAMGWYRQAPGKERELVAAITRSGGSTYYADSVKGRFTISRDNAKNTVYLQMNSLKPEDTAVYYCAARKRGTFTYDYWGQGTQVTVSS”: the “polyreactivity (PSR sort gate)” value is “high polyreactivity”.

For the sequence “QVQLVESGGGLVQAGGSLRLSCAASGRIFRGYAMGWSRQAPGKERELVAAITSRGGSTYADSVKGRFTISRDNAKNTVYLQMNSLKPEDTAVYYCNAKEGSRYRKYDYWGQGTQVTVSS”, the “polyreactivity (PSR sort gate)” value is reported as “low polyreactivity”.

Regarding “QVQLVESGGGLVQAGGSLRLSCAASGITFGNYAMGWYRQAPGKARELVAAITGSGGRTYYADSVKGRFTISRDNANNTVYLQMNRLKPEYTAVYYCNRRQYGRKKQYDYWGQGTQVTVSS”, the “polyreactivity (PSR sort gate)” value was “high polyreactivity”.

In the case of “QVQLVESGGGLVQAGGSLRLSCAASGSIFLVNAMGWYRQAPGERKELVAAISWSSGSTYYADSVKGRFTNSRDNAKNTVYLQMNSLKPEDTAVYYCAKRSSITYRYDYWGQGTQVTVSS”, the “polyreactivity (PSR sort gate)” value is “high polyreactivity”.

For “QVQLVESGGGLVQAGGSLRLSCAASGNIFATYAMGWYRHAPGKEREFVAAITSRGGGTFYADSVKGRFTISRDNAKNTVYLQMNSLKPEDTAVYYCAARRSGHWLYGYWGQGTQVTVSS”, the “polyreactivity (PSR sort gate)” value was “high polyreactivity”.

In the case of “QVQLVESGGGLVQAGGSLRLSCAASGLTISYYAMGRYRQAPGKERELVAAISTDSSTNYADSVKGRFTISRDNAKNTVYLQMNSLKPEDTAVYYCAAVPRGTQCAMDYWGQGTQVTVSS”, the “polyreactivity (PSR sort gate)” value is “low polyreactivity”.

With “QVQLVESGGGLVQAGGSLRLSCAASGSIFPLYAMGWYRQAPGKERELVAAITSNGGRTYYADSVKGRFTISRDNAKNTVYLQMNSLKPEDTAVYYCNKYLLDYRRGRSDYWGQGTQVTVSS”, the “polyreactivity (PSR sort gate)” value is given as “low polyreactivity”.

In the case of “QVQLVESGGGLVQAGGSLRLSCAASGSIFRIYAMGWSRQAPGKERELVAAIDSSGGSTYYADSVKGRFTISRDNAKNTVYLQMNSLKPEDTAVYYCAADFGSKSTPYDYWGQGTQVTVSS”, the “polyreactivity (PSR sort gate)” value is given as “low polyreactivity”.

As for “QVQLVESGGGLVQAGGSLRLSCAASGSTFFRYAMGWYRQAPGKEREFVAAISKRGGSTHYADSVQGRFTLSRDNAKNTVYLQMNSLKPEHTAVYYCAASSFTSSYNYWGQGTQVTVSS”, the “polyreactivity (PSR sort gate)” value is “high polyreactivity”.

On to “QVQLVESGGGLVQAGGSLRLSCAASGFIFASNAMGWYRQAPGKERELVAAITRSGGITYYADSVKGRFTISRDNAKNTVYLQMNSLKPEDTAVYYCNKGRRTKNSAYYDYWGQGTQVTVSS”, for which the “polyreactivity (PSR sort gate)” value is “high polyreactivity”.

As for “QVQLVESGGGLVQAGGRLRLSCAASGSIFNSYAMGWYRQAPGTEREFVASIPKSGGTTYYADSVKGRFTISRDNAKNTVYLQMNSLKPEDTAVYYCAADWYRSSWTYNYWGQGTQVTLSS”, the “polyreactivity (PSR sort gate)” value is on record as “low polyreactivity”.

For the sequence “QVQLEESGGGLVQAGVSLRLSCAASGFTFDRYAMGSYRQAPAKEREMVAALSRSGTSTYYADSVKGRFTISRDNAKYTVYLQMNSLKPEDNAVYYCATRYTVYFPSRLSQYDYWGQGTQVTVSS”, the “polyreactivity (PSR sort gate)” value was “high polyreactivity”.

Regarding “QVQLQESGGGLVQAGGSLRLSCAASGTISDSGLMGWYRQAPGKERELVAGISSGGITNYADSVKGRFTISRDNAKNSVDLQMNSLKPEDTAVYWGRGTQVTVSS”, the “polyreactivity (PSR sort gate)” value is “low polyreactivity”.

Turning to “QVQLVESGGGLVQAGGSLRLSCAASGRIFVYNAMGWYRQAPGKEREFVAAISWDGASTYYADSVKGRFTISRDNAKNTVYLQMNSLKPEDTAVYYCAASYRRKLYNDYWGQGTQVTVSS”, the “polyreactivity (PSR sort gate)” value is “low polyreactivity”.

Take “QVQLVESGGGLVQAGGSLRLSCAASGSIFSWYAMGWYRQAPGKERELVATITWRGGSTYYADSVKGRFTISRDNAKNTVYLQMNSLKPEDTAVYYCAARVPDPYTSYRYPPYYYWGQGTQVTVSS”: the “polyreactivity (PSR sort gate)” value is on record as “low polyreactivity”.

With “QVQLVESGGGLVQAGCSLRLSCAASGRTFVWYEMGWYRQATGKERELVAAINKRGTSTYYADSVKGRFTISRDNAKNTVYLQMNSLNPEVTAVYYCAVEYIYWFHSRSSYIYDYWGQGTQVTVSS”, the “polyreactivity (PSR sort gate)” value was “low polyreactivity”.

As to “QVQLVESGGGLVQAGGSLRLSCAASGRNFGLNAMGWYRQAPGKERELVAAIDQGDGITYYADSVKGRFTISRDNAKNTVYLQMNSLKTEDTAVYYCAAEVSYKEIYQYYWIYPAYNYWGQGTQVTVSS”, the “polyreactivity (PSR sort gate)” value is “high polyreactivity”.

With “QVQLVESGGGLVQAGGSLLLSCAAYGSISPYYTMGLYRQAPGKERELVAAICSGGRTYYADSVKGRFTISRDNAKNTVYLHMNSLNPEDTSVYYCAVEVAWYVHWGDMDYWGQGTQVTVSS”, the “polyreactivity (PSR sort gate)” value is reported as “low polyreactivity”.

On to “QVQLVESGGGIVQAGGSLRLSCAASGRTLPEYAMGWYIQEPGKERELVAAITSSSGSTYYADSVKVRFTISRDNAKNTVYLQMNSLIPEDTAVYYCAAESESGYHDYDYWGQGTQVTVSS”, for which the “polyreactivity (PSR sort gate)” value was “low polyreactivity”.
